The nature of data set [1]: Biotransformation of dodecanoic acid using CFE of E. coli, Tris-HCl buffer. It counts as biochemical. Particulars: 5 mmol/L substrate, CFE of E. coli, Tris-HCl, 24 h. Here is the method:
(§1) Expression of genes in E. coli was performed by using ZYP-5052 auto-induction medium (Table 1) with in the case of the CYP 1 mM 5-aminolevulinic acid and 0.05 mM FeCl3 added. The CYP505E3 culture was cultivated using baffled flasks and incubated at 20° C. and 180 rpm for 24 h, while the GDH, and HLADH expressing cultures were all cultivated at 25° C. and 200 rpm for 24 h. Cultures were harvested through centrifugation (6 000×g, 10 min) and 1 g (wet weight) resuspended in 2 ml, 5 ml or 10 ml Tris-HCl, Phosphate or MOPS buffer, as indicated, (pH 8, 200 mM) containing 100 mM of glucose and glycerol. CFEs were obtained by a single passage of the suspended cells through a One Shot Cell Disrupter (Constant Systems) at 207 MPa. The soluble fraction was separated from unbroken cells by centrifugation (20 000×g, 20 min).
(§2) The biotransformation reaction mixture (BRM) consisted of CYP and GDH CFE suspensions prepared from cells in Tris-HCl buffers (1 g wet weight in 2 ml buffer) mixed in a 1:1 ratio with 0.1 mM NADPH added. Dodecanoic acid, tetradecanoic acid, hexadecanoic acid, 1-tetradecanol and 1-hexadecanol (20 μl of a 255 mM stock solution in DMSO) were added to 40 ml amber glass vials containing 1 ml BRM to give final substrate concentrations of 5 mmol·LBRM^−1. These vials were placed on an orbital shaker at 20° C., 200 rpm, oscillation amplitude 26 mm. Vials were removed after 24 h for extraction. Biotransformations were stopped by adding 170 ul of 0.5M HCl, extracted with 2×500 μl EtOAc and subjected to GC-MS analysis. A sample of δ-dodecalactone in ethyl acetate (0.1 mM) was also methylated with TMSH and subjected to GC-MS analysis.

Data set [2] is classed as biochemical. Here is the method:
To convert 1,5-dodecanediol to δ-dodecalactone 170 μL of an ethyl acetate extract containing 150 mM dodecanol and 5.5 mM 1,5-dodecanediol was placed in a 40 mL vial and the ethyl acetate evaporated by incubating the vial at 100° C. for 5 min. After evaporation of the ethyl acetate the dodecanol/dodecanediol mixture was resuspended in 1 mL of an HLADH expressing culture of E. coli permeabilized with Triton X100 (1% v/v was added and the cell suspension incubated at 37° C. for 10 min). This reaction mixture containing 1 mM of 1,5-dodecanediol and 25 mM of dodecanol was incubated at 30° C. and 180 rpm for 24 h. It was then extracted with ethyl acetate (2×0.5 mL) containing 2 mM undecanol as internal standard and analysed on a VF5 column using a GC with FID detector for quantification and a GC-MS with a Chiraldex G-TA column (30 m×0.25 mm ID) to determine enantioselectivity. The ethyl acetate extract contained 0.2 mM 1,5-dodecanediol and 0.65 mM δ-dodecalactone (R:S ratio 84:16, ee 67%) while the δ-dodecalactone produced from dodecanoic acid in previous experiments using CYP505E3 was an almost racemic mixture (R:S ratio 55:45, ee 10%) (FIG. 12).

Data set [3] can be described thus: Biotransformation of hexadecanoic acid using CFE of E. coli, Tris-HCl buffer. It counts as biochemical. Here is the method: as §1, §2
Data set [4] can be described thus: Biotransformation of 1-hexadecanol using CFE of E. coli, Tris-HCl buffer. Particulars: 5 mmol/L substrate, 24 h. Type of data set: biochemical. The protocol: as §1
The biotransformation reaction mixture (BRM) consisted of CYP and GDH CFE suspensions prepared from cells in Tris-HCl buffers (1 g wet weight in 2 ml buffer) mixed in a 1:1 ratio with 0.1 mM NADPH added. Dodecanoic acid, tetradecanoic acid, hexadecanoic acid, 1-tetradecanol and 1-hexadecanol (20 μl of a 255 mM stock solution in DMSO) were added to 40 ml amber glass vials containing 1 ml BRM to give final substrate concentrations of 5 mmol·LBRM^−1. These vials were placed on an orbital shaker at 20° C., 200 rpm, oscillation amplitude 26 mm. […]

The format of data set [5] is biochemical, E. coli. Here is the method:
as §1
(§3) Biotransformations of dodecane, tetradecane and hexadecane were carried using only CYP505E3 containing CFE prepared from an E. coli cell suspension (1 g wet weight in 10 ml buffer) in MOPS buffer (200 mM, pH 8) containing glucose and glycerol (100 mM each) as well as 0.1 mM NADPH. Alkane substrates (250 μL) were added to 1 mL BRM in 40 ml amber glass vials. These vials were placed on an orbital shaker at 20° C., 200 rpm, oscillation amplitude 26 mm and incubated for 24 h.

Data set [6] can be described thus: Biotransformation of hexadecane using CFE of E. coli expressing CYP505E3. It counts as biochemical. Here is the method:
as §1, §3

Data set [7] is described as follows: Whole cell biotransformation of dodecane by CYP505s expressed in P. pastoris. Type of data set: cell-based. Conditions: whole cells of P. pastoris. The protocol: Precultures of P. pastoris transformants were prepared in buffered complex glycerol media (BMGY). BMGY contained: 10 g/l yeast extract, 20 g/l peptone, 3.4 g/l yeast nitrogen base, 10 g/l ammonium sulfate, 100 mM potassium phosphate (pH 6), 0.4 mg/l biotin and 1% (v/v) glycerol. Erlenmeyer flasks (500 ml) containing 50 ml BMGY media were inoculated with single colonies of 24 h old YPD-agar cultures of P. pastoris KM71 mut^s3/CYP505E3 and incubated at 30° C. and 225 rpm for 24 h. The cultures were harvested using pre-weighed centrifuge tubes at 3000 g for 5 min and stored on ice until further use.
The main cultures for expression were prepared in buffered complex methanol media (BMMY) containing 10 g/l yeast extract, 20 g/l peptone, 3.4 g/l yeast nitrogen base, 10 g/l ammonium sulfate, 100 mM potassium phosphate (pH 6), 0.4 mg/l biotin and 0.5 or 1% (v/v) methanol. Harvested cells from precultures were resuspended in BMMY media to final concentration of 1 g WC per 40 ml (appx. 25 g/l). The resuspended cultures (100 ml) were transferred to 500 ml Erlenmeyer flasks and incubated at 25° C. and 225 rpm for 24 h. The cultures were then harvested at 3000 g for 5 min using pre-weighed centrifuge tubes.
Different transformants of Pichia pastoris KM71 harbouring the CYP505 genes for SEQ ID Nos 1 to 7 and 9 to 12 were grown and harvested as described above. The harvested cells were resuspended to give 1 g wet cell weight in 40 ml MOPS buffer (200 mM, 100 mM glucose, 100 mM glycerol, pH 8) and 1 ml aliquots of these cell suspensions were transferred to 40 ml amber vials. Dodecane, 1-dodecanol and 1-tetradecanol were added neat to these cell suspensions to give final concentrations of 200 mM in the case of the alcohols and 1 M in the case of dodecane while in the case of dodecanoic acid 20 μl of a 500 mM stock solution (in DMSO) was added to give a final concentration of 10 mM. Transformants harbouring the CYP505 genes for SEQ ID Nos 1 to 4 were tested for the biotransformation of 1-dodecanol, 1-tetradecanol, dodecanoic acid, tetradecanoic acid and dodecane, while those harbouring the CYP505 genes for SEQ ID Nos 5 to 7 and 9 to 12 were only tested for the biotransformation of 1-dodecanol and dodecanoic acid. The biotransformations were incubated at 25° C. and 225 rpm for 24 h. Extractions were performed using ethyl acetate (500 μl×2). The extracts were analyzed using GC/MS.

B1: CYP505E3: self-sufficient cytochrome P450 monooxygenase from Aspergillus terreus, SEQ ID No 1 (protein, listed as Aspergillus terreus)
chain: MIKETEQIPGPRPLPVVGNLFDMDLEHGLECLIRLADDFGPLFQITINGEKQIFATSQALVDELCDESRFHKAVMGGLEKLRMLASDGLFTAYHGERGWGIAHRILVPAFGPLRIRNMFEEMNDVAQQLCLKWARQGSSTSINITDDFTRLTLDTIALCTMNFRLNSFYNNETMHPFVKSMLYVLRESDIQSMLPGIANCIRVKARSRMSKHIQLMRNMARGIIQERRDQAEPVDDLLNTLLNGRDPVTGEGMSDDLIINNVITFLIAGHETTSGLLSFTFYYLLQNPHILERAQNEVDEVTGGERITVQHLGRLTYIDAILKESLRLMPTAPAFTVTPKKPEVLGGAWAIDAGQAVNVLLPVCLRDRSVFGPDADEFRPERMLEENFSKLPPNSWKPFGNGERSCIGRAFAWQEAQLVVAMVLQTFDLVPDDPSYKLRIKETLTIKPDGFRVRATLRRGQSATGLSQGSMSASGATSSVASPGPPAATGAQSNPAGGQRISFFYGSNSGTCKALAHRLASSLMGRGFTEQKLAALDTVVGNLPTDQPVIIVTTSYDGRPTDDAEEFVRWLESKRPVLQGVSYAVFGCGHHDWAKTFYRIPILIDDLMHKAGATRLTALGTANAAVSDLFSDLELWEETNLLPALREAFPPSNSSDVESSEPHQLQICVSKPRRVDMHRGLVEAKVTAVRTLTSPDSPEKRHVEFHVQGDTTWRPGDHVNILPVNPLSTVSRVLAYFQLAPDHSITVNSFNTQGLPSATPVSATELFSSFVELSQPATRKNLKALAMAAESKTDEQELIRLHDSYDALVRDKRVSVLDILERFPSISLPIGIFISMLPPLRLRTYSLSMAPSFKPSHGSLTFSVINEPAWSGNGQYLGVGSNYLASLTPGSLLYLSPRPAKDAFHLPADQFNTPIIMICAGSGLAPFMGFIQERMTWLKQGRPLAKGLLFFGCRGPHLDDLYYEELSEFEDAGVVEVHRAYSRAPDDVRAKGCRHVQHRLVTEAEAVRDHWGRNAIVYVCGSSNMARGVQTVLEEILGTLPPERYVAEIF
For the molecule B1, the “products identified from dodecanoic acid (GC-MS, methylated samples)” value in data set [1] was “δ-dodecalactone and the methyl ester of 5-hydroxy dodecanoic acid”. For the same molecule, in data set [2], the “δ-dodecalactone R:S ratio” value is on record as 55:45 and the δ-dodecalactone ee came to 10%. Also, in data set [3] (5 mmol/L substrate, Tris-HCl, 24 h), the “products identified from hexadecanoic acid (GC-MS, methylated samples)” value was 9-hydroxy hexadecanoic acid. In addition, in data set [3] (C16 fatty acid, GC-MS peak height), the “ω-7 hydroxylase activity C16FA” value is “++ (++ 0.1 million < RA < 1 million)”. For the same molecule, the “products detected from hexadecanol (GC-MS)” value in data set [4] is on record as “did not allow detection of any products”. Besides, in data set [5], the “product from dodecane (GC-MS)” value is 5-dodecanol and the “product from tetradecane (GC-MS)” value was 7-tetradecanol. The “ω-7 hydroxylase activity C16alk” value in data set [6] (C16 alkane, GC-MS peak height) is listed as “+ (+ − 0.01 million < RA < 0.1 million)”. In addition, the “product from hexadecane (GC-MS)” value in data set [6] (MOPS buffer, 24 h) is reported as 8-hexadecanol. For the same molecule, the “products produced from dodecane (GC-MS)” value in data set [7] (1 M dodecane, 24 h) is recorded as 5-dodecanol. Besides, the “ω-7 hydroxylase activity C12alk” value in data set [7] (C12 alkane, GC-MS peak height) is reported as “+++ (+++ 1 million < RA < 10 million)”.

The values above are taken from US10975360B2, “Process for the modification of alkanes, fatty acids and fatty alcohols” (priority 2016, dated 2021).
